Measured values taken from PMC10629583 (2023).
Where a chain is given by its changes, count along the chain named. Names and notes keep the numbering of the source. Where no end group is shown, it is not given here. [ ]: non-standard residue; d: D form. The star is where a group is joined. FITC = O=C1OC2(c3ccc(O)cc3Oc3cc(O)ccc32)c2ccc(NC(=S)*)cc21; pT = C[C@@H](OP(=O)(O)O)[C@H](N)C(=O)O; Ahx = NCCCCCC(=O)O

What was measured:
Experiment in all cases: FP
FITC-GPMQTSpTPKNG = molecular target: T1, FITC-GPMQTSpTPKNG (synthetic construct)
T1 chain: {FITC}-GPMQTS[pT]PKNG

FITC-GPLATSpTPKNG = molecular target: T2, FITC-GPLATSpTPKNG (synthetic construct)
T2 chain: {FITC}-GPLATS[pT]PKNG

[1] = molecular target: PBD1 (residues 345–603) F559D (human, UniProt P53350 345-603, F559D)
[2] = molecular target: Plk1 polo-box domain, PBD1 (residues 345–603) WT (human, UniProt P53350 345-603)
[3] = molecular target: PBD1 (residues 345–603) F559E (human, UniProt P53350 345-603, F559E)
[4] = molecular target: PBD1 (residues 345–603) F559R (human, UniProt P53350 345-603, F559R)
[5] = molecular target: PBD1 (residues 345–603) F559K (human, UniProt P53350 345-603, F559K)
Chain of PBD1 (residues 345–603) F559K (P53350 345-603 F559K): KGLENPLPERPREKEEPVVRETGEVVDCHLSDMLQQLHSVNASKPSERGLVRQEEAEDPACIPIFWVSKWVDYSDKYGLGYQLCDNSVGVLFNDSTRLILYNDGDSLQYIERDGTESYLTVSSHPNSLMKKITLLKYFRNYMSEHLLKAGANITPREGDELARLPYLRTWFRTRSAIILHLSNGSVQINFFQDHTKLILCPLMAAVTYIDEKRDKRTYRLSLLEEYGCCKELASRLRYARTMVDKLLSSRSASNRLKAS

Chain of Plk1 polo-box domain, PBD1 (residues 345–603) WT (P53350 345-603): as the sequence (P53350 345-603 F559K) above, with K215F counted along it
Chain of PBD1 (residues 345–603) F559E (P53350 345-603 F559E): as the sequence (P53350 345-603 F559K) above, with K215E counted along it
Chain of PBD1 (residues 345–603) F559R (P53350 345-603 F559R): as the sequence (P53350 345-603 F559K) above, with K215R counted along it
Chain of PBD1 (residues 345–603) F559D (P53350 345-603 F559D): as the sequence (P53350 345-603 F559K) above, with K215D counted along it

B1: PBD2 S652F (protein)
chain: HLSSPAKNFFKKAAAALFGGKKDKARYIDTHNRVSKEDEDIYKLRHDLKKTSITQQPSKHRTDEELQPPTTTVARSGTPAVENKQQIGDAIRMIVRGTLGSCSSSSECLEDSTMGSVADTVARVLRGCLENMPEADCIPKEQLSTSFQWVTKWVDYSNKYGFGYQLSDHTVGVLFNNGAHMSLLPDKKTVHYYAELGQCSVFPATDAPEQFISQVTVLKYFSHYMEENLMDGGDLPSVTDIRRPRLYLLQWLKSDKALMMLFNDGTFQVNFYHDHTKIIICSQNEEYLLTYINEDRIFTTFRLTTLLMSGCSSELKNRMEYALNMLLQRCN
Kd (FITC-GPMQTSpTPKNG): 62.7 nM

B2: MBP-PBD3 A612F (protein)
chain: TPPNPARSLFAKVTKSLFGRKKKSKNHAQERDEVSGLVSGLMRTSVGHQDARPEAPAASGPAPVSLVETAPEDSSPRGTLASSGDGFEEGLTVATVVESALCALRNCIAFMPPAEQNPAPLAQPEPLVWVSKWVDYSNKFGFGYQLSSRRVAVLFNDGTHMALSANRKTVHYNPTSTKHFSFSVGAVPRALQPQLGILRYFASYMEQHLMKGGDLPSVEEVEVPAPPLLLQWVKTDQALLMLFSDGTVQVNFYGDHTKLILSGWEPLLVTFVARNRSFCTYLASHLRQLGCSPDLRQRLRYALRLLRDRSPA
Kd (FITC-GPLATSpTPKNG): 85.4 nM

B3: PBD2 (protein)
chain: B1 chain with F298S
Kd (FITC-GPMQTSpTPKNG): 80.2 nM

B4: FITC-Ahx-DPPLHSpTAI-NH2 (peptide)
peptide: {FITC-Ahx}-DPPLHS[pT]AI-NH2
SMILES: CC[C@H](C)[C@H](NC(=O)[C@H](C)NC(=O)[C@@H](NC(=O)[C@H](CO)NC(=O)[C@H](Cc1c[nH]cn1)NC(=O)[C@H](CC(C)C)NC(=O)[C@@H]1CCCN1C(=O)[C@@H]1CCCN1C(=O)[C@H](CC(=O)O)NC(=O)CCCCCNC(=S)Nc1ccc2c(c1)C(=O)OC21c2ccc(O)cc2Oc2cc(O)ccc21)[C@@H](C)OP(=O)(O)O)C(N)=O
Kd [1]: 28.1 nM
Kd [2]: 16.8 nM
Kd [3]: 124 nM
Kd [4]: 460 nM
Kd [5]: 704 nM

B5: MBP-PBD3 (protein)
chain: B2 chain with F278A
Kd (FITC-GPLATSpTPKNG): 62.4 nM
